Results: patent US20250223359A1

B1: CD3hi anti-CD3 antibody (antibody, V domains shown)
VH: EVQLVESGGGLVQPGGSLKLSCAASGFTFNTYAMNWVRQASGKGLEWVGRIRSKYNNYATYYADSVKDRFTISRDDSKSTLYLQMNSLKTEDTAVYYCVRHGNFGNSYVSWFAYWGQGTLVTVSS
VL: QAVVTQEPSLTVSPGGTVTLTCRSSTGAVTTSNYANWVQQKPGQAPRGLIGGTNKRAPWTPARFSGSLLGDKAALTLSGAQPEDEAEYFCALWYSNLWVFGGGTKLTVL
B2: CD3med anti-CD3 antibody (antibody, V domains shown)
VH: EVQLVESGGGLVQPGGSLKLSCAASGFTFNTYAMNWVRQASGKGLEWVGRIRSKYNNYATYYADSVKDRFTISRDDSKNTAYLQMNSLKTEDTAVYYCVRHGNFGNSYVSWFAHWGQGTLVTVSS
VL: QAVVTQEPSLTVSPGGTVTLTCGSSTGAVTSSNYANWVQQKPGQAPRGLIGGTNKRAPWTPARFSGSLLGGKAALTLSGAQPEDEAEYYCALWYSNLWVFGGGTKLTVL
B3: CD3lo anti-CD3 antibody (antibody, V domains shown)
VH: EVQLVESGGGLVQPGGSLKLSCAASGFTFNTYAMNWVRQASGKGLEWVGRIRSKYNNYATYYADSVKDRFTISRDDSKSTAYLQMNSLKTEDTAVYYCVRHGNFGNSYVSWFAYWGQGTLVTVSS
VL: QAVVTQEPSLTVSPGGTVTLTCRSSTGAVTTSNYANWVQQKPGQAPRGLIGGTNKRAPWTPARFSGSLLGDKAALTLSGAQPEDEAEYFCALWYSNLWVFGGGTKLTVL

biological target: CD3-Fc; experiment: SPR (Biacore T200, 25 C); CD3-Fc captured on anti-hFc IgG1 CM5 chip, antibody injected in 1:2 dilution series; 1:1 binding model

Binder	Kd [nM]
B1	16
B2	30
B3	48
